Consider four substances from US20220175814A1.

For test [1], the target named is PD-L1 on RENCA HER2 cells (mouse) (UniProt Q9EP73). The test can be described thus: flow cytometry, untreated RENCA HER2 cells stained with PE anti-mouse PD-L1 10F.9G2, 1 h.
Test [2] shares this target. The test can be described thus: flow cytometry, RENCA HER2 cells treated 24 h with 1 microgram/ml polyIC/PPHA, stained with PE anti-mouse PD-L1 10F.9G2, 1 h. For orientation: Flow cytometry measures light scatter and fluorescence of single cells or particles in a stream.
For test [3] the target is unchanged. The test can be described thus: flow cytometry on RENCA HER2 cells, isotype control, 1 h.
The target in test [4] is PD-L1 on A431 cells (UniProt Q9NZQ7). The test can be described thus: flow cytometry, A431 cells treated 5 h with 0.125 µg/ml PEI-PEG-EGF/polyIC, stained 40 min on ice.
Sequence of UniProt Q9NZQ7 (Q9NZQ7 19-290 limits assumed): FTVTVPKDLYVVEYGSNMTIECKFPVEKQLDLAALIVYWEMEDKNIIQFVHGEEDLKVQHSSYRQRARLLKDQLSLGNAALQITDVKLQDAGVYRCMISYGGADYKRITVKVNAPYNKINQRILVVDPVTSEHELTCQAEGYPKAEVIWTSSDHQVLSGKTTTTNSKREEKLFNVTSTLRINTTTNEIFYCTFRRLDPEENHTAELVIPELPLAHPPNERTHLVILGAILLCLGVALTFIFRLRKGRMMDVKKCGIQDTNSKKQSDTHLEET
For test [5] the target is unchanged. The test can be described thus: flow cytometry, untreated control A431 cells, stained 40 min on ice.
The target is the same in test [6]. Nature of the test: flow cytometry on A431 cells, negative control.

Sequence of UniProt Q9EP73 (Q9EP73 19-290): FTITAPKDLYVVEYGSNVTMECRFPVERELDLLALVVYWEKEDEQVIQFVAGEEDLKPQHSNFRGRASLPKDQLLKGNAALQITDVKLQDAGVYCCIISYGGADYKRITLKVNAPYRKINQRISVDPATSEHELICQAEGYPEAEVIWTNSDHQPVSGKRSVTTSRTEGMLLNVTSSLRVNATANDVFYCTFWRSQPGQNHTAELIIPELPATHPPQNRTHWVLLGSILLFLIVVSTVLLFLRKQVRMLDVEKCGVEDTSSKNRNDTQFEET

As for “phycoerythrin (PE)-conjugated anti-mouse PD-L1 antibody CD274 (PD-L1, B7-H1) [10F.9G2] Tonbo cat #50-1243-U025”, the figures for the median PE-A (Calculated raw values of medians using x-axis channel(s): PE-A) in test [1] and in test [2] were 163 and 322, respectively.
Regarding “Isotype control (Example 6, RENCA HER2 staining) (antibody)”, the median PE-A (Calculated raw values of medians using x-axis channel(s): PE-A) in test [3] is 3.19.
As to “PD-L1-PE labelled antibody (Biolegend, cat #393607)”, the MFI in test [4] amounted to 751; in test [5], 431.
Take “Isotype control (Example 1, A431 staining) (antibody)”: the MFI in test [6] was found to be 13.
